T1: TNFR1 (Homo sapiens, UniProt P19438)
T1 chain: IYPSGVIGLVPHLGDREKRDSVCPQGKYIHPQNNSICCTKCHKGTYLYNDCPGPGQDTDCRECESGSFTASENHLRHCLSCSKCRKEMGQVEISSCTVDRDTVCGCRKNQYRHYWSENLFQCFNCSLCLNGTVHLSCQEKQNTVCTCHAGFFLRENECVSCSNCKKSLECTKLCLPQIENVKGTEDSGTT


Biological target: T1, TNFR1
Assay: yeast display SC50

Row | Binder | apparent Kd (screen) [nM]
1 | E4G (designed binder) SMEGEVEKAAKEYEKKKKEAIEKHLEKLKAKDKEAAERFLKELEEAAKEYAKDEAKTMSEEEAKRRAKKYKEKVLLSELSEEEQKEIKEAEEKLVRTILKYVEEAAK | 0.718
2 | E54K (designed binder) SMEEEVEKAAKEYEKKKKEAIEKHLEKLKAKDKEAAERFLKELEEAAKEYAKDKAKTMSEEEAKRRAKKYKEKVLLSELSEEEQKEIKEAEEKLVRTILKYVEEAAK | 8.56
3 | K17M (designed binder) SMEEEVEKAAKEYEKKMKEAIEKHLEKLKAKDKEAAERFLKELEEAAKEYAKDEAKTMSEEEAKRRAKKYKEKVLLSELSEEEQKEIKEAEEKLVRTILKYVEEAAK | 0.79
4 | K41W (designed binder) SMEEEVEKAAKEYEKKKKEAIEKHLEKLKAKDKEAAERFLWELEEAAKEYAKDEAKTMSEEEAKRRAKKYKEKVLLSELSEEEQKEIKEAEEKLVRTILKYVEEAAK | 0.446
5 | E34W (designed binder) SMEEEVEKAAKEYEKKKKEAIEKHLEKLKAKDKWAAERFLKELEEAAKEYAKDEAKTMSEEEAKRRAKKYKEKVLLSELSEEEQKEIKEAEEKLVRTILKYVEEAAK | 0.446
6 | I21Y (designed binder) SMEEEVEKAAKEYEKKKKEAYEKHLEKLKAKDKEAAERFLKELEEAAKEYAKDEAKTMSEEEAKRRAKKYKEKVLLSELSEEEQKEIKEAEEKLVRTILKYVEEAAK | 0.446
7 | K68L (designed binder) SMEEEVEKAAKEYEKKKKEAIEKHLEKLKAKDKEAAERFLKELEEAAKEYAKDEAKTMSEEEAKRRALKYKEKVLLSELSEEEQKEIKEAEEKLVRTILKYVEEAAK | 2.73
8 | L40K (designed binder) SMEEEVEKAAKEYEKKKKEAIEKHLEKLKAKDKEAAERFKKELEEAAKEYAKDEAKTMSEEEAKRRAKKYKEKVLLSELSEEEQKEIKEAEEKLVRTILKYVEEAAK | 0.446
9 | A30D (designed binder) SMEEEVEKAAKEYEKKKKEAIEKHLEKLKDKDKEAAERFLKELEEAAKEYAKDEAKTMSEEEAKRRAKKYKEKVLLSELSEEEQKEIKEAEEKLVRTILKYVEEAAK | 1.4
10 | F39V (designed binder) SMEEEVEKAAKEYEKKKKEAIEKHLEKLKAKDKEAAERVLKELEEAAKEYAKDEAKTMSEEEAKRRAKKYKEKVLLSELSEEEQKEIKEAEEKLVRTILKYVEEAAK | 4.39
11 | A55F (designed binder) SMEEEVEKAAKEYEKKKKEAIEKHLEKLKAKDKEAAERFLKELEEAAKEYAKDEFKTMSEEEAKRRAKKYKEKVLLSELSEEEQKEIKEAEEKLVRTILKYVEEAAK | 11.4
12 | T57R (designed binder) SMEEEVEKAAKEYEKKKKEAIEKHLEKLKAKDKEAAERFLKELEEAAKEYAKDEAKRMSEEEAKRRAKKYKEKVLLSELSEEEQKEIKEAEEKLVRTILKYVEEAAK | 0.49
13 | K56T (designed binder) SMEEEVEKAAKEYEKKKKEAIEKHLEKLKAKDKEAAERFLKELEEAAKEYAKDEATTMSEEEAKRRAKKYKEKVLLSELSEEEQKEIKEAEEKLVRTILKYVEEAAK | 3
14 | E26N (designed binder) SMEEEVEKAAKEYEKKKKEAIEKHLNKLKAKDKEAAERFLKELEEAAKEYAKDEAKTMSEEEAKRRAKKYKEKVLLSELSEEEQKEIKEAEEKLVRTILKYVEEAAK | 0.593
15 | K29E (designed binder) SMEEEVEKAAKEYEKKKKEAIEKHLEKLEAKDKEAAERFLKELEEAAKEYAKDEAKTMSEEEAKRRAKKYKEKVLLSELSEEEQKEIKEAEEKLVRTILKYVEEAAK | 0.869
16 | Y13M (designed binder) SMEEEVEKAAKEMEKKKKEAIEKHLEKLKAKDKEAAERFLKELEEAAKEYAKDEAKTMSEEEAKRRAKKYKEKVLLSELSEEEQKEIKEAEEKLVRTILKYVEEAAK | 0.593
17 | E19P (designed binder) SMEEEVEKAAKEYEKKKKPAIEKHLEKLKAKDKEAAERFLKELEEAAKEYAKDEAKTMSEEEAKRRAKKYKEKVLLSELSEEEQKEIKEAEEKLVRTILKYVEEAAK | 22.2
18 | E19N (designed binder) SMEEEVEKAAKEYEKKKKNAIEKHLEKLKAKDKEAAERFLKELEEAAKEYAKDEAKTMSEEEAKRRAKKYKEKVLLSELSEEEQKEIKEAEEKLVRTILKYVEEAAK | 0.446
19 | K52M (designed binder) SMEEEVEKAAKEYEKKKKEAIEKHLEKLKAKDKEAAERFLKELEEAAKEYAMDEAKTMSEEEAKRRAKKYKEKVLLSELSEEEQKEIKEAEEKLVRTILKYVEEAAK | 0.446
20 | E4N (designed binder) SMENEVEKAAKEYEKKKKEAIEKHLEKLKAKDKEAAERFLKELEEAAKEYAKDEAKTMSEEEAKRRAKKYKEKVLLSELSEEEQKEIKEAEEKLVRTILKYVEEAAK | 0.539
21 | E49R (designed binder) SMEEEVEKAAKEYEKKKKEAIEKHLEKLKAKDKEAAERFLKELEEAAKRYAKDEAKTMSEEEAKRRAKKYKEKVLLSELSEEEQKEIKEAEEKLVRTILKYVEEAAK | 0.956
22 | E19K (designed binder) SMEEEVEKAAKEYEKKKKKAIEKHLEKLKAKDKEAAERFLKELEEAAKEYAKDEAKTMSEEEAKRRAKKYKEKVLLSELSEEEQKEIKEAEEKLVRTILKYVEEAAK | 0.49

More lines, now with the values ahead:

Row | apparent Kd (screen) [nM] | Binder
23 | 11.4 | S77I (designed binder) SMEEEVEKAAKEYEKKKKEAIEKHLEKLKAKDKEAAERFLKELEEAAKEYAKDEAKTMSEEEAKRRAKKYKEKVLLIELSEEEQKEIKEAEEKLVRTILKYVEEAAK
24 | 0.653 | K68N (designed binder) SMEEEVEKAAKEYEKKKKEAIEKHLEKLKAKDKEAAERFLKELEEAAKEYAKDEAKTMSEEEAKRRANKYKEKVLLSELSEEEQKEIKEAEEKLVRTILKYVEEAAK
25 | 0.0498 | K107D (designed binder) SMEEEVEKAAKEYEKKKKEAIEKHLEKLKAKDKEAAERFLKELEEAAKEYAKDEAKTMSEEEAKRRAKKYKEKVLLSELSEEEQKEIKEAEEKLVRTILKYVEEAAD
26 | 0.446 | E104G (designed binder) SMEEEVEKAAKEYEKKKKEAIEKHLEKLKAKDKEAAERFLKELEEAAKEYAKDEAKTMSEEEAKRRAKKYKEKVLLSELSEEEQKEIKEAEEKLVRTILKYVEGAAK
27 | 5.31 | V74R (designed binder) SMEEEVEKAAKEYEKKKKEAIEKHLEKLKAKDKEAAERFLKELEEAAKEYAKDEAKTMSEEEAKRRAKKYKEKRLLSELSEEEQKEIKEAEEKLVRTILKYVEEAAK
28 | 1.86 | I98P (designed binder) SMEEEVEKAAKEYEKKKKEAIEKHLEKLKAKDKEAAERFLKELEEAAKEYAKDEAKTMSEEEAKRRAKKYKEKVLLSELSEEEQKEIKEAEEKLVRTPLKYVEEAAK
29 | 2.73 | E78N (designed binder) SMEEEVEKAAKEYEKKKKEAIEKHLEKLKAKDKEAAERFLKELEEAAKEYAKDEAKTMSEEEAKRRAKKYKEKVLLSNLSEEEQKEIKEAEEKLVRTILKYVEEAAK
30 | 2.48 | L79G (designed binder) SMEEEVEKAAKEYEKKKKEAIEKHLEKLKAKDKEAAERFLKELEEAAKEYAKDEAKTMSEEEAKRRAKKYKEKVLLSEGSEEEQKEIKEAEEKLVRTILKYVEEAAK
31 | 1.16 | A105V (designed binder) SMEEEVEKAAKEYEKKKKEAIEKHLEKLKAKDKEAAERFLKELEEAAKEYAKDEAKTMSEEEAKRRAKKYKEKVLLSELSEEEQKEIKEAEEKLVRTILKYVEEVAK
32 | 2.73 | K73I (designed binder) SMEEEVEKAAKEYEKKKKEAIEKHLEKLKAKDKEAAERFLKELEEAAKEYAKDEAKTMSEEEAKRRAKKYKEIVLLSELSEEEQKEIKEAEEKLVRTILKYVEEAAK
33 | 2.25 | K69G (designed binder) SMEEEVEKAAKEYEKKKKEAIEKHLEKLKAKDKEAAERFLKELEEAAKEYAKDEAKTMSEEEAKRRAKGYKEKVLLSELSEEEQKEIKEAEEKLVRTILKYVEEAAK
34 | 2.73 | A106Y (designed binder) SMEEEVEKAAKEYEKKKKEAIEKHLEKLKAKDKEAAERFLKELEEAAKEYAKDEAKTMSEEEAKRRAKKYKEKVLLSELSEEEQKEIKEAEEKLVRTILKYVEEAYK
35 | 0.79 | A106D (designed binder) SMEEEVEKAAKEYEKKKKEAIEKHLEKLKAKDKEAAERFLKELEEAAKEYAKDEAKTMSEEEAKRRAKKYKEKVLLSELSEEEQKEIKEAEEKLVRTILKYVEEADK

Source: PMC12416549 (2024)
